The nanobody polyreactivity screen of Harvey et al. (2022)

Experiment: yeast display, Sf9 membrane polyspecificity reagent, FACS + sequencing; frameworks hold sequencing errors
Outline: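 Galactose-induced (36–48 hours) yeast carrying a synthetic nanobody display library were exposed to 10% biotinylated, detergent-solubilized Sf9 membrane reagent at 4 °C for 1 hour. FACS followed streptavidin microbead enrichment, using low and high (top ~1%) gates for expression (anti-HA) and reagent binding (streptavidin). Colony PCR, MiSeq 2 × 250 sequencing and CDR-length filtering followed. Labels for polyreactivity reflect the gate of origin.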

QVQLVESGGGLVQAGCSLRLSCAASGSILWHYAMGWYRPAPGKERELVAAISGSGRTNYADSVKGGFTISRDNAKNTVYLQLNSLKPEDTAVYYGARVHGTSESKYYYWGQGTQVTVSL
polyreactivity (PSR sort gate): low polyreactivity

QVQLVESGVGLVQGGGSLRLTCPASGFTFDWYAMGWYRPAPGKERELVAAISSSGTSTYYADSVKGRFTISRDTAKNTVYLQMNSLKPEDTAVYYCAARWYYVTPLRRYCYWGQGTQVTVSS
polyreactivity (PSR sort gate): high polyreactivity

QVQLVESGGGLVQAGGSLRLSCAPSGIIFSPNAMGLYRQAPGKERELVASISSDSSTNYADSVKGRFSISRDNAKNTVYLQMNSLKPEYTAVYYCAADFVVGQAGDWTFWFDYWGQGTQVTVSS
polyreactivity (PSR sort gate): low polyreactivity

QVQLVESGGGLVQAGGSLRLSCAASGSIFSLYAMGWYRPAPGKERELVAAISDGTGTNYADSVKGRFTISRDNAKNTVYLQMNSLKPVDTAVYYCATETYWYLPYYGDVEGNYWGQGTQVTVSS
polyreactivity (PSR sort gate): low polyreactivity

QVQLVESGGGLVQAGGSLRLSCAASGRIFRGYAMGWYRQAPGKERELVAAISNGGGTNYADTVKGRFTISRDNAKNTVYLQMNSLKPEDTAVYYCATGFLQNYYKYTSSFRFYYWGQGTQVTVSS
polyreactivity (PSR sort gate): high polyreactivity

QVQRVESGGGLVQAGGSLRLSCAASGSTFVNYVMGLYRQAPGKERELVAAISWSGGRTYYADSMKGRFTISRDNAKNTVYLQMNSLKPEDTAVYYCNAVYAGFLRVRYDYWGQGTQVTVSS
polyreactivity (PSR sort gate): high polyreactivity

QVQLVESGGGLVQAGGSLRLSCAASGFTFATYAMGWYRQAPGKKGRLVAAISNAGSTKYADSVKGRFTISRDNAKNTVYLQMNSLKPEDTAVYYCAASTLYASSYYLYDYWGQGTQVTVSS
polyreactivity (PSR sort gate): high polyreactivity

QVQLGDSGGGLLQAGGSLRLSCAASGRTFYYNALGWYRQAPGKERELVARIRSGGSTNYADSVKGRFTISRDNAKNTVYFQMNSRKPEDTAVYYCNALGAKGYVKGFDYWGLGTQVTVSS
polyreactivity (PSR sort gate): low polyreactivity

QVQLVESGGGLVQAGGSLRLSCAASGIIFDYNAMGWYRQAPGKERELVAAISGRSGRTYYADSVKGRFTISRDNAKNTVYLQMNSLKPEDTAVYYCNALRLTRDPYDYWGQGTQVTVSS
polyreactivity (PSR sort gate): high polyreactivity

QVQLVESGGGLVQAGGSLRLICAASGSTFKYNAMGWYRQAPGKERELVAAISSGGSTNYADSVKGRFTISRDNAKNTVYLQMHSLKPEDTAVYYCNAAYNYVTPWYFYWGQGTQVTVSS
polyreactivity (PSR sort gate): high polyreactivity

QVQLVESGGGLVQAGGSLRLSCAASGSTSQSNAMGWYRQAPGKERELVAAISWSGTSTYYADSVKGRFTISRDNAKNTVYLQMNSLNPEDSAVYYCAADYIFDYDYWGQGTQVTVSS
polyreactivity (PSR sort gate): low polyreactivity

QVQLVESGGALVQAGGSLRLSCAASGSTFYTYVMGWYRQAPGKQREVVADITWRGGSTYYADSENGRFTISRDNAKNTVYLLMNSLKPEDTPVYYCAALSGLLWYGRMYYWGQGTQVTVSS
polyreactivity (PSR sort gate): high polyreactivity

QVQLVESGGGLVQAGGSLRLSCAASGSIFSAYAMGWYRQAPGKERELVAGISKRGGSTYYADSVKGRFTISRDNAKNTVYLQMNSLKPEDTAVYYCNAARYTVVTKLFDYWGQGTQVTVSS
polyreactivity (PSR sort gate): high polyreactivity

QVQLVESGGGLVQAGGSLRLSCAASGSIFVPYAMGWYRQAPGKERELVAAISSRGGRTYYADSVKGRFTISRDNPKNTVYLQMNSLKPEDTAVYYCNKTAGSHIPRLEYWGQGTQVTVSS
polyreactivity (PSR sort gate): low polyreactivity

QVQLVESGGGIVQAGGSLRLSCAASGSTFPPNAMGWYRQAPGKERELVAGINGSGGRTYYADSVKGRFTISRDNAKNTVYLQMNSLKPVDTAVYYCATRLRSEYYYNKWYYHWGQGTQVTVSS
polyreactivity (PSR sort gate): high polyreactivity

QVQLVESGGGLVQAGGSLRLSCAASGLTFGRYAMGWYRQAPGKERELVAAITASGGITYYADSVKGRFTISRDNAKNTVYLQMNSLKPEDTAVYYCAADGEVKYDYWGQGTQVTVSS
polyreactivity (PSR sort gate): low polyreactivity

QVQLVESGGGLVQAGGSLRLSCAASGRIFGVYAMGRYRQAPGKERELVAGINGGDSTYYADSVKGRFTISRDNAKNTVYLQMNSLKAEDTAVYYCAAEADESGSNYDYWGQGTQVTVSS
polyreactivity (PSR sort gate): low polyreactivity

QVQLVESGGGLGQAGGSLRLSCAASGSIFYRNARGWYRQAPGKERELVASITSGGRTNYADSVKGRFTISRDNAKYSVYLQMNSLKPEDTAVFYCARGRASYTTSGPTPYTGYGYWRQGTQVTVSS
polyreactivity (PSR sort gate): low polyreactivity

QVQLVESGGGLVQAGGSLRLSCAASGSNFKTYVMGWSRQAPGKERELVAAITSSGGRTYYADSVKGRFTISRDNAKNSVYLQMNSLKPEDTAVYYCNTAPRWVGRNDYWGQGTQVTVSS
polyreactivity (PSR sort gate): high polyreactivity

QVQLVESGGGLVQAGRSLRLSCAASGSTSERYDMGWYRQAPGKERELVATITWSGGDTHYADSVKGRFTISRDNAKNSVYLQLNSLKPEDTAVYYCAAEYTFVWGMWYDYWGQGTQVTVSS
polyreactivity (PSR sort gate): low polyreactivity

VQLVESGGGLVQAGGSLRLSCAACGSTFYPYAMGWYRPAPGKERELVAAISYSGGSTYYADSVKGRFTISRDNAKNTVYLQMNSLKPEDTAVYYCAARYWYKRFVWGDYWGQGTQVTVSS
polyreactivity (PSR sort gate): high polyreactivity

QVQLVESGGGLVQAGGSLRLSCAASGSIYSTYAMGWYRQAPGKERELVAAITSDGTYADSVKGRFTISRDNARNTVYLQMNSLKPEDTAVYYCAAYYPYTRHGDYWGQGTQVTVSS
polyreactivity (PSR sort gate): low polyreactivity

QVQLVESGGGLVQAGGSLRLSCAASGSTFYAYTMGWYRQAPGKERELVAAISSGGGTYYADSVKGRFTISRDNAKNTVYLQMNSLKPEDTAVYYCAADPVGYYDPSDYWGQGTQVTVSS
polyreactivity (PSR sort gate): low polyreactivity

QVQLVESGRGLVQAGGSLRLSCAASGRIFVAYTMGLYRQAPGKERELVASINRSGGTYYADSVKGRFTISRDNAKNTVYLQMNRLKPEDTAVYYCNAVFRSRSYFSKGDYWGQGTQVTVSS
polyreactivity (PSR sort gate): high polyreactivity

QVQLQESGGGLVLAGGSLRLSCAASGNIFVYSYMGWYRQAPGKEREFVAAIGAGSTTYYADSVSRFTISRDNAKNTVYLQMNSLKPEDTAVYYCNAEITVNDDDYWGQGTQVTVSS
polyreactivity (PSR sort gate): low polyreactivity

QVQLVESGGGLVQAGGSVSLSCAASGTFSPYAMGWYRQAPGKERELVADITSNTGRTYADSVKGRFTISRDNAKNTVYLKMNSLKPEDTSVYYCNTYGSGTHSSGYDYWGQGTQVTVSS
polyreactivity (PSR sort gate): low polyreactivity

QVQLVESGGGIVQAGGSLRLTCAASGSIFVNNAIGWYIQAPGKERELVADIRRSGGNTYYADSVKGRFTISRDNAKNTVYLQMNSLKPEDTAVYYCNVVRRADSIRAKSRDYWGQGTQVTVSS
polyreactivity (PSR sort gate): high polyreactivity

QVQLVESGGVLVQAGGSLRLSCAASGSTFLDYAMGWYRQAPGKERELVAAITSGGSTYYADSVKGRFTISRDNAKNTVDLHMKSMIPEDTAVYYCAADSVTGNAPSLVGDIYYYWGQGTQVTVSS
polyreactivity (PSR sort gate): low polyreactivity

QVQLVESGGGLVQAGGSLRLSCAASGRTFDFYVMGWYRHAPGKERELVAAISSGGSTNYADSVKGRFTISRDNAKYTVYLQMNSLKPEDTAVYYCAADPSGDYWGQGTQVTVSS
polyreactivity (PSR sort gate): low polyreactivity

QVQLVESGGGLVQAGGSLRLSCAASGSTFGTYAMGWYRQAPGKERELVAAISSGDSTTYADSVKGRFTISRDNAKNTVYLQMNSLKPEDTAVYYCAARVPYKSDYWGQGTQVTVSS
polyreactivity (PSR sort gate): low polyreactivity

QVQLVESGGGLVQAGGSLRLSCAASGRIFGGYAMGWYRQAPGKERELVAAIRWSGGSTYADSVKGRFTISRDNAKYTVYLQMNSLKPEDTAVYYCNTVRSPPGHDYWGQGTQVTVSS
polyreactivity (PSR sort gate): low polyreactivity

QVQLVESGGGLVQAGGILRLSCAASGSTFTSYAMGWYRQAPGKERELVAAISKSGGSTYYADSVKGRFTISRDNAKNTVYLQMNSLKPEDTALYYCAARYNVRSYSTSRFYYWGQGTLVTVSS
polyreactivity (PSR sort gate): low polyreactivity
